From US20040180341A1, “Transcriptional regulation of kinase inhibitors” (Brown University, priority 2003, published 2004)
Blank lines part the entries; values can stand above or below the molecule they belong to.

Key:
[1] = test system: AP-1 dependent reporter gene; experiment: AP-1 dependent reporter gene (TRE-lacZ), microinjection into Rat-1 cells; type: cell-based; details: for suppression of AP-1 reporter induction caused by anti-RKIP antibodies: MEK inhibitors given 1 h before microinjection
Excerpt: In one embodiment, the RKIP protein inhibiting agent can be an antibody specifically recognizing an RKIP motif. For example, to examine the relevance of the interaction between RKIP and the kinases of the Raf/MEK/ERK module in mammalian cells, endogenous RKIP \was inhibited by antibody microinjection. Since the AP-1 transcription factor is a major target of Raf signaling (Kortenjann et al. Mol. Cell. Biol. 14:4815-4824, 1994;Rapp et al., Oncogene 9:3493-3498, 1994; Kolch et al. Oncogene 8:361-370, 1993), the influence of RKIP on AP-1 activity was tested as shown in FIG. 3.
Microinjections of antibodies and reporter genes were performed as described previously (Lavinsky et al. Proc. Natl. Acad. Sci. USA 95:2920-2925, 1998; Rose et al. J. Cell. Biol. 119:1405-1411, 1992). Briefly, quiescent Rat-1 cells were microinjected with the reporter plasmids and antibodies and either left unstimulated or treated with 200 ng/ml TPA or 20 μg/ml forskolin. The RKIP antiserum was purified over a GST-RKIP affinity column. NIH3T3 cells were stained with an activation specific anti-phospho-ERK monoclonal antibody (Sigma). ERK phosphorylation was quantified by densitometry. For this purpose areas with microinjected cells were randomly photographed, and the staining intensity of whole individual cells was measured using the PcBAS software.
(§1) In one embodiment, the present invention provides a method of identifying a cell growth modulating agent by analyzing the effect of a candidate agent on the expression of an RKIP responsive reporter. For example, to show the effect of the RKIP on the activity of the AP-1 mediated transcription, NIH 3T3 cells were co-transfected with a 3xTRE-CAT reporter and the above described expression plasmids. NIH 3T3 and 208F cells were transfected in 6-well plates with 1 μg of pCMV5-BXB and 3 μg of p53/RKIP using Superfect (Qiagen).
AP-1 luciferase assays and microinjection experiments with affinity-purified RKIP antiserum and TRE-lacZ reporter plasmids were carried out as previously described (Yeung et al. Nature, 401:173-177, 1999). […] This induction was due to the activation of MEK, since it could be suppressed by two structurally different MEK inhibitors, U0126 and PD98059 (FIG. 7(a)). […] These antibodies are therefore useful tools for investigating the molecular mechanism by which RKIP works. The RKIP antiserum interfered with the binding of Raf-1 and MEK to RKIP (FIG. 7(b)). […] Furthermore, the RKIP antibodies reversed the inhibitory effect of RKIP on MEK phosphorylation by Raf-1 (FIG. 7(c)).

AP-1 activity = experiment: 3xTRE-CAT reporter in NIH 3T3 cells co-transfected with RKIP; type: cell-based; details: RKIP transfection
Protocol: as §1

Raf-1 [2] = experiment: Raf-1 immunoprecipitate kinase activity in transfected COS-1 cells; type: cell-based; details: co-transfection of RKIP
Protocol: (§2) The COS-1 cells were transfected as described (Catling et al., 1995, Mol. Cell. Biol. 15: 5214-5225) with 2 μg of HA-ERK-2, BXB, MEK and MEK-DD plasmids and the indicated amounts of p353/RKIP. The total amount of transfected DNA was kept constant using the appropriate vectors as carrier DNA. […] In addition, 0.1 μg of an AP1-Luc reporter was transfected for reporter gene assays. 48 hours post-transfection cells were serum starved for 20 hours and either left untreated or treated with TPA (200 ng/ml) or serum for 5 hours before being collected. Cells were lysed and cell extracts were used for immunoblotting or assayed for luciferase activity. For the GFP sorting experiments 5×10^6 NIH 3T3 cells were electroporated with either 100 μg pCMVori, 50 μg pCMV-GFP, and 50 μg pHACT or 100 μg pASC143, 50 μg CMV-GFP, and 50 μg CMV-HAC. Two days later cells were trypsinized and sorted for green fluorescent cells by preparative FACS. 100,000 GFP-positive cells were lysed in SDS-gel sample buffer and immunoblotted.
(§3) COS-1 cells were transiently transfected with HA-MEK and increasing amounts of RKIP expression vectors. Serum starved cells were stimulated with 100 ng/ml TPA for 20 minutes, and the kinase activities of Raf-1 and HA-MEK immunoprecipitates were measured.

GST-Raf-1 = biological target: T1, GST-Raf-1 (Homo sapiens, UniProt P04049); experiment: Binding of purified RKIP to inactive and activated GST-Raf-1 beads; details: recombinant RKIP produced in E. coli
T1 construct: made in house; host or cells: Sf-9 insect cells
Protocol: Activated GST-Raf-1 was produced in Sf-9 insect cells co-infected with RasV12 and Lck, which results in a robust activation of the catalytic activity. GST-Raf-1 proteins were purified by adsorption to glutathione Sepharose beads and incubated with recombinant RKIP produced in E. coli. […] We also tested whether activation affected the binding of MEK and ERK to RKIP. Purified MEK and ERK were phosphorylated in vitro with recombinant Raf-1 or Raf-1 plus MEK, respectively, and incubated with GST or GST-RKIP beads. The binding reaction products were washed, separated on SDS gels, and immunoblotted with the appropriate antisera. […] However, since only small fractions of MEK and ERK become phosphorylated, we also carried out the phosphorylation in the presence of […] The blots were autoradiographed to detect phosphorylated MEK and ERK and were subsequently stained with the cognate antisera to visualize total protein bound. Under these conditions, binding of phosphorylated MEK and ERK to RKIP was evident.

NIH 3T3 and 208F cells = experiment: Transformation assays (morphological transformation, focus formation, soft agar); type: cell-based
Excerpt: Additionally, NIH 3T3 cells were transfected with BXB, alone or together with RKIP (linked to neomycin/G418 resistance encoding gene). The G418-resistant colonies were counted and scored for morphological transformation. Aliquots of the same transfection were allowed to grow to confluency without drug and were scored for focus formation. A BXB-transformed cell line was infected with LXSH-RKIP retrovirus or LXSH (hygromycin resistant) and seeded in soft agar in the presence of hygromycin. […] The data are expressed as the reduction in focus formation relative to focus formation upon co-transfection with empty vector (set to 100%).

MEK [3] = biological target: T2, MEK (Homo sapiens, UniProt Q02750); experiment: HA-MEK immunoprecipitate kinase activity in transfected COS-1 cells; type: cell-based; details: co-transfection of RKIP, dose dependent
T2 construct: expressed in transfected cells; host or cells: COS-1
Protocol: as §2, §3

ERK [4] = experiment: HA-ERK immunoprecipitate kinase activity in transfected COS-1 cells; type: cell-based
Protocol: as §2
COS-1 cells were transfected with the indicated expression plasmids plus increasing amounts of RKIP. HA-ERK-2 was immunoprecipitated and assayed with MBP.
COS-1 cells were transfected with the indicated expression vectors and the kinase activity of HA-ERK immunoprecipitates was examined.

MEKK-1 = experiment: MEK phosphorylation by immunoprecipitated MEKK-1; type: biochemical; details: MEKK-1 immunoprecipitated from COS-1 cells, knMEK substrate
Protocol: “BSA” indicates use of 15 μM bovine serum albumin; “Co.” substrate alone; and “kn”, kinase negative mutant. […] HA-MEK-DD or HA-MEK-1 expressed in COS-1 cells were immunoprecipitated with anti-HA antibodies from serum starved cells or TPA treated cells, respectively, and assayed for kinase activity. […] MEKK-1 was immunoprecipitated from transiently transfected COS-1 cells and used to phosphorylate knMEK.

MEK [5] = experiment: In vitro kinase assay: MEK; type: biochemical
Protocol: Kinase assays were done as described in Hafner et al. (Mol. Cell. Biol. 14:6696-6703, 1994). Activated Raf-1 was generated by co-expressing GST-Raf-1 with v-Ras and Lck in Sf-9 cells and collected on glutathione Sepharose beads. Subsequent thrombin cleavage released Raf-1 which was fully active and >90% pure. To activate MEK and ERK in vitro, 20 ng activated Raf-1 was incubated with 40 ng purified His/MEK-1 and 250 ng GST-ERK-2 in Raf kinase buffer containing 20 μM ATP for 20 minutes at 30° C. To measure kinase activities at individual steps the respective downstream components were omitted. The activation reactions were diluted into 50 μl Raf kinase buffer containing 20 μm ATP to yield equimolar concentrations of the kinases to be assayed and incubated with increasing amounts of purified RKIP on ice for 10 minutes. Similar assays may be performed with smaller polypeptides comprising RKIP motifs, or even with a peptide consisting essentially of an RKIP motif as defined herein. Then, 2 μCi [^32P]-γ-ATP and recombinant substrates were added and incubated for 20 minutes at 30° C. As substrates 200 ng kinase negative His/MEK-1 was used for Raf, 1 μg kinase negative GST-ERK for MEK, and 1 μg GST-ELK (New England Biolabs) for ERK. In some assays 1 μg GST-MEK was used as Raf-1 substrate with identical results. […]

ERK [6] = biological target: T3, ERK (Homo sapiens, UniProt P28482); experiment: In vitro kinase assay: ERK; type: biochemical; details: purified RKIP, recombinant proteins in vitro
T3 construct: GST; made in house
Protocol: (§4) Kinase assays were done as described in Hafner et al. (Mol. Cell. Biol. 14:6696-6703, 1994). Activated Raf-1 was generated by co-expressing GST-Raf-1 with v-Ras and Lck in Sf-9 cells and collected on glutathione Sepharose beads. Subsequent thrombin cleavage released Raf-1 which was fully active and >90% pure. To activate MEK and ERK in vitro, 20 ng activated Raf-1 was incubated with 40 ng purified His/MEK-1 and 250 ng GST-ERK-2 in Raf kinase buffer containing 20 μM ATP for 20 minutes at 30° C. To measure kinase activities at individual steps the respective downstream components were omitted. The activation reactions were diluted into 50 μl Raf kinase buffer containing 20 μm ATP to yield equimolar concentrations of the kinases to be assayed and incubated with increasing amounts of purified RKIP on ice for 10 minutes. Similar assays may be performed with smaller polypeptides comprising RKIP motifs, or even with a peptide consisting essentially of an RKIP motif as defined herein. Then, 2 μCi [^32P]-γ-ATP and recombinant substrates were added and incubated for 20 minutes at 30° C. As substrates 200 ng kinase negative His/MEK-1 was used for Raf, 1 μg kinase negative GST-ERK for MEK, and 1 μg GST-ELK (New England Biolabs) for ERK. In some assays 1 μg GST-MEK was used as Raf-1 substrate with identical results.

Raf-1 [7] = biological target: T4, Raf-1 (Homo sapiens, UniProt P04049); experiment: In vitro kinase assay of reconstituted Raf/MEK/ERK cascade: Raf-1; type: biochemical
T4 construct: GST (cleaved yes); made in house; host or cells: Sf-9 insect cells
Protocol: as §4

[8] = test system: cell lines resistant to apoptosis; experiment: Sensitivity to apoptotic stimuli on RKIP expression; type: cell-based; details: expression of RKIP; data not shown
Raf-1-MEK complexes = biological target: T5, Raf-1-MEK complexes (Homo sapiens, UniProt P04049); experiment: Disruption of the Raf-1-MEK complex on glutathione Sepharose beads; type: binding; details: in vitro, purified RKIP
T5 construct: made in house; host or cells: Sf-9 insect cells
Protocol: In vitro binding assays contained 5 μg of GST-fusion protein immobilized on glutathione Sepharose beads and 0.5-5 μg purified recombinant protein in PBS supplemented with 10% bovine serum as nonspecific competitor. Sf-9 cell lysates were used as source of Raf proteins (Hafner et al., 1994, Mol. Cell. Biol. 14: 6696-6703). After incubation for 1 hour at 4° C. the samples were washed 4 times with PBS, resolved by SDS-PAGE and blotted. The blots were developed using ECL (Amersham).
GST-MEK and Raf-1 were co-expressed in Sf-9 cells. The GST-MEK-Raf-1 complex was purified by adsorption to glutathione Sepharose beads, washed, and resuspended in PBS. Purified RKIP was added at the concentrations indicated. After 1 hour at 4° C., the GST-MEK beads were washed three times with PBS and examined for associated proteins by Western blotting (WB) with the indicated antisera.

[9] = microinjection of an RKIP expression vector
[10] = purified RKIP, recombinant proteins in vitro

T3 sequence (P28482 whole entry): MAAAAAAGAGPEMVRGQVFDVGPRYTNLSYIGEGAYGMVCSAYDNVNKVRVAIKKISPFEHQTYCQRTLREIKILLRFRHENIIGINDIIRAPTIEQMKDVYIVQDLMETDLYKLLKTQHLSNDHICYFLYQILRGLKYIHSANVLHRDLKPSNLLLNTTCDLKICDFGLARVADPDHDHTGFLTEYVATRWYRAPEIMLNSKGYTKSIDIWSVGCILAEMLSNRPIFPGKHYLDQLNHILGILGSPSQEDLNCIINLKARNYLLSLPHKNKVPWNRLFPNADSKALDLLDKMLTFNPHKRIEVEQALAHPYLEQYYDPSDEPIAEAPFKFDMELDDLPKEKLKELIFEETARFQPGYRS

Molecule: COc1cccc(-c2cc(=O)c3ccccc3o2)c1N [PD98059, reference compound]
suppression of AP-1 reporter induction caused by anti-RKIP antibodies [1]: suppressed

Molecule: N#CC(=C(/N)Sc1ccccc1N)/C(C#N)=C(\N)Sc1ccccc1N [U0126, reference compound]
suppression of AP-1 reporter induction caused by anti-RKIP antibodies [1]: suppressed

RKIP binding to activated versus inactive GST-Raf-1 (GST-Raf-1): Less RKIP bound | activation of MEK by TPA (MEK [3]): strongly inhibited | ERK phosphorylation by MEK (MEK [5]; [10]): did not inhibit | ELK phosphorylation by ERK (ERK [6]): did not inhibit | mechanism of Raf-1 inhibition (Raf-1 [7]; Lineweaver-Burk plot, GST-MEK-1 substrate): competitive inhibitor | Raf-1 autophosphorylation or phosphorylation of MBP by Raf-1 (Raf-1 [7]; in vitro): did not interfere | phosphorylation of MEK by Raf-1 (Raf-1 [7]; [10]): decreased | physical interaction between Raf-1 and MEK (Raf-1-MEK complexes): disrupted
B1: RKIP: Raf kinase inhibitor protein; used as purified recombinant protein or expressed from vector p353/RKIP (protein, UniProt P30086 2-187, looked up)
Phosphatidylethanolamine-bindi …: PVDLSKWSGPLSLQEVDEQPQHPLHVTYAGAAVDELGKVLTPTQVKNRPTSISWDGLDSGKLYTLVLTDPDAPSRKDPKYREWHHFLVVNMKGNDISSGTVLSDYVGSGPPKGTGLHRYVWLVYEQDRPLKCDEPILSNRSGDHRGKFKVASFRKKYELRAPVAGTCYQAEWDDYVPKLYEQLSGK
basal and BXB induced AP-1 activity (AP-1 activity): diminished | activation of Raf-1 by TPA (Raf-1 [2]): only a small influence | induction of foci by v-fos or mutationally activated MEK alleles (NIH 3T3 and 208F cells; RKIP overexpression): only to a small extent | v-src transformation (NIH 3T3 and 208F cells; RKIP overexpression): failed to inhibit | total colony yield (NIH 3T3 and 208F cells; RKIP overexpression with BXB): decreased | transformation efficiency of BXB (NIH 3T3 and 208F cells; RKIP overexpression, morphological transformation, focus formation, anchorage independent growth): significantly reduced | ERK activation by MEK-DD (ERK [4]; RKIP co-transfection): did not affect | activation of ERKs by v-Ras or v-Src oncogenes (ERK [4]; RKIP overexpression): downregulated | BXB induced activation of ERK (ERK [4]; increasing amounts of RKIP expression plasmid, dose dependent): inhibited | AP-1 induction by TPA and BXB [1, 9]: impaired | AP-1 stimulation by ERK-1 [1, 9]: did not interfere | MEK phosphorylation by MEKK-1 (MEKK-1): did not prevent | inhibition of MEK-DD or MEK activated by TPA treatment of cells (MEK [5]; immunoprecipitated from COS-1 cells): failed to inhibit | sensitivity to apoptotic stimuli [8]: rendered sensitive
